The results in this text go back to PMC6763497, “Argonaute bypasses cellular obstacles without hindrance during target search”.

Numbering of substitutions follows the chain as printed.

Data set [1] concerns the target T1, CbAgo (Clostridium butyricum, UniProt P0DYD1 1-748). Description: smFRET; shuttling time 2.11 s (2.03-2.19); 50 mM Tris-HCl pH 8.0, 100 mM NaCl (10-200 mM in salt series); temperature not given; TIRF smFRET, 100 ms. Conditions: protein: recombinant, tags: His6-MBP removed by TEV, label: Cy3 guide, Cy5 target, 3' biotin dT, two sites.
The target of data set [2] is T1, CbAgo. Description: smFRET; 17 bp blockade, shuttling; 50 mM Tris-HCl pH 8.0, 100 mM NaCl (10-200 mM in salt series); temperature not given; TIRF smFRET, 100 ms. Particulars: protein: recombinant; tags: His6-MBP removed by TEV; label: Cy3 guide; 3' biotin dT target; strands 2:3 pair over 17 bp, ss flanks.
Data set [3] deals with T1, CbAgo. In words: smFRET; 25 bp blockade; 50 mM Tris-HCl pH 8.0, 100 mM NaCl (10-200 mM in salt series); temperature not given; TIRF smFRET, 100 ms. Particulars: protein: recombinant; tags: His6-MBP removed by TEV; label: Cy3 guide; 3' biotin dT target; strands 2:3 pair over 25 bp, ss flanks.
For data set [4], the target named is T1, CbAgo. Description: smFRET; 21 bp blockade; 50 mM Tris-HCl pH 8.0, 100 mM NaCl (10-200 mM in salt series); temperature not given; TIRF smFRET, 100 ms. Particulars: protein: recombinant; tags: His6-MBP removed by TEV; label: Cy3 guide; 3' biotin dT target; strands 2:3 pair over 21 bp, ss flanks.
Data set [5] concerns the target T1, CbAgo. Description: smFRET; shuttling time as tandem 11 nt; 50 mM Tris-HCl pH 8.0, 100 mM NaCl (10-200 mM in salt series); temperature not given; TIRF smFRET, 100 ms. Particulars: protein: recombinant; tags: His6-MBP removed by TEV; label: Cy3 guide; Cy5 target; 5' biotin strand; fork 2:3, 17 bp stem.
For data set [6], the target named is T1, CbAgo. In words: smFRET; Lin28b bound between targets; shuttling; 50 mM Tris-HCl pH 8.0, 100 mM NaCl (10-200 mM in salt series); temperature not given; TIRF smFRET, 100 ms. Particulars: protein: recombinant; tags: His6-MBP removed by TEV; label: Cy3 guide; Cy5 target; hairpin between two ss target sites.
For data set [7], the target named is T1, CbAgo. Description: smFRET; shuttling rate 0.3188 s-1; 50 mM Tris-HCl pH 8.0, 100 mM NaCl (10-200 mM in salt series); temperature not given; TIRF smFRET, 100 ms. Particulars: protein: recombinant, tags: His6-MBP removed by TEV, label: Cy3 guide, Cy5 target, 3' biotin dT, two sites.
Data set [8] addresses T1, CbAgo. Description: smFRET; three-state shuttling; 50 mM Tris-HCl pH 8.0, 100 mM NaCl (10-200 mM in salt series); temperature not given; TIRF smFRET, 100 ms. Conditions: protein: recombinant, tags: His6-MBP removed by TEV, label: Cy3 guide, Cy5 target, 3' biotin, three sites 11 nt apart.
Data set [9] deals with T1, CbAgo. In words: smFRET; shuttling time 0.4459 s at 200 mM NaCl; 50 mM Tris-HCl pH 8.0, 100 mM NaCl (10-200 mM in salt series); temperature not given; TIRF smFRET, 100 ms. Particulars: protein: recombinant, tags: His6-MBP removed by TEV, label: Cy3 guide, Cy5 target, 3' biotin, two sites.
In data set [10] the target is T1, CbAgo. Description: smFRET; shuttling time 0.5124 s at 200 mM NaCl; 50 mM Tris-HCl pH 8.0, 100 mM NaCl (10-200 mM in salt series); temperature not given; TIRF smFRET, 100 ms. Conditions: protein: recombinant, tags: His6-MBP removed by TEV, label: Cy3 guide, Cy5 target, 3' biotin dT, two sites.
For data set [11], the target named is T1, CbAgo. In words: smFRET; 100 mM NaCl; mean dwell 37 s, koff 2.7e-2 s-1; 50 mM Tris-HCl pH 8.0, 100 mM NaCl (10-200 mM in salt series); temperature not given; TIRF smFRET, 100 ms. Conditions: protein: recombinant, tags: His6-MBP removed by TEV, label: Cy3 guide, Cy5 target, 3' biotin target, 3 nt match (guide nt 2-4).
Data set [12] deals with T1, CbAgo. Description: smFRET; stable beyond photobleaching time; 50 mM Tris-HCl pH 8.0, 100 mM NaCl (10-200 mM in salt series); temperature not given; TIRF smFRET, 100 ms. Particulars: protein: recombinant, tags: His6-MBP removed by TEV, label: Cy3 guide, Cy5 target, 3' biotin target.
In data set [13] the target is T1, CbAgo. Description: smFRET; 100 mM NaCl; 87.8% shuttling, 13.5 events per binding; 50 mM Tris-HCl pH 8.0, 100 mM NaCl (10-200 mM in salt series); temperature not given; TIRF smFRET, 100 ms. Conditions: protein: recombinant, tags: His6-MBP removed by TEV, label: Cy3 guide, Cy5 target, 3' biotin, two sites.
The target of data set [14] is T1, CbAgo. Description: smFRET; 15.1% shuttling; strongly bound; 50 mM Tris-HCl pH 8.0, 100 mM NaCl (10-200 mM in salt series); temperature not given; TIRF smFRET, 100 ms. Conditions: protein: recombinant, tags: His6-MBP removed by TEV, label: Cy3 guide, Cy5 target, 3' biotin, two sites, 6 nt match.

B1: Guide 3nt / tandem 120 nt (ssDNA)
DNA 1: CGAGTATTTTTTTTTTTTTTTT
DNA 2: TTTTTTTTTTTTTTACTACCTCTTTTTTTTTTTTTTTTTTTTTTTTTTTTTTTTTTTTTTTTTTTTTTTTTTTTTTTTTTTTTTTTTTTTTTTTTTTTTTTTTTTTTTTTTTTTTTTTTTTTTTTTTTTTTTTTACTACCTCTTTTTTTTTTTTTTTTTTTTTTTTTTTTTTT
modifications: guide 5' phosphate; amino-C6-dT; target 3' phosphate
On to B1, for which the binding result with CbAgo [1] is reported as “binds”.

B2: Guide 3nt / 36 nt target with 17 nt block (mixed)
DNA 1: CGAGTATTTTTTTTTTTTTTTT
DNA 2: TTTTTTTTTTTTTTACTACCTCTCGGACCAACAGCGGGTACGGCTGTGCTACTACCTCTTTTTTTTTTTTTTTTTTTTTTTTTTTTTTTT
DNA 3: ACAGCCGTACCCGCTGT
modifications: guide 5' phosphate; labelled T in block
In the case of B2, the binding result in the data set with CbAgo [2] is “binds”.

B3: Guide 3nt / 36 nt target with 25 nt block (mixed)
DNA 1: CGAGTATTTTTTTTTTTTTTTT
DNA 2: B2 DNA 2
DNA 3: TAGCACAGCCGTACCCGCTGTTGGT
modifications: guide 5' phosphate; labelled T in block
In the case of B3, the binding result with CbAgo [3] was “binds”.

B4: Guide 3nt / 36 nt target with 21 nt block (mixed)
DNA 1: CGAGTATTTTTTTTTTTTTTTT
DNA 2: B2 DNA 2
DNA 3: GCACAGCCGTACCCGCTGTTG
modifications: guide 5' phosphate; labelled T in block
Take B4: in the data set with CbAgo [4], the binding result is given as “binds”.

B5: Guide 3nt / 11 nt Y-fork (mixed)
DNA 1: CGAGTATTTTTTTTTTTTTTTT
DNA 2: TTTTTTTTTTTTTTTTTTTTTTTTCTCTTTGGCGACGGCAGCGAGGC
DNA 3: GCCTCGCTGCCGTCGCCATTTTTTCTCTTTTTTTTT
modifications: guide 5' phosphate; dye-labelled T in target
As to B5, the binding result with CbAgo [5] is listed as “binds”.

B6: Guide 3nt / Lin28 double target (mixed)
DNA 1: CGAGTATTTTTTTTTTTTTTTT
DNA 2: TTTTTTTTTTTTTTTTTTTACTACCTCTTTTTTTTTTTTTTTTTTTTGCGCTATGCGGTTGTATAGTTTTAGGGTCACACCCACCACTGGGAGATAACTATACAATCGCATAGCGCTTTTTTTTTTTTTTTTTTTTTTTTTTTTTTTTTACTACCTCTTTTTTTTTTTTTTTTT
modifications: guide 5' phosphate; amino-C6-dT
B6: the binding result with CbAgo [6] is on record as “binds”.

B7: Guide 3nt / tandem 92 nt (ssDNA)
DNA 1: CGAGTATTTTTTTTTTTTTTTT
DNA 2: TTTTTTTTTTTTTTACTACCTCTTTTTTTTTTTTTTTTTTTTTTTTTTTTTTTTTTTTTTTTTTTTTTTTTTTTTTTTTTTTTTTTTTTTTTTTTTTTTTTTTTTTACTACCTCTTTTTTTTTTTTTTTTTTTTTTTTTTTTTTT
modifications: guide 5' phosphate; amino-C6-dT; target 3' phosphate
For B7, the binding result with CbAgo [7] is on record as “binds”.

B8: Guide 3nt / triple target (ssDNA)
DNA 1: CGAGTATTTTTTTTTTTTTTTT
DNA 2: TTTTTTTTTTTTACCTCTTTTTTACCTCTTTTTTACCTCTTTTTTTTTTTTTTTTTTTTTTTTTTTTTT
modifications: guide 5' phosphate; amino-C6-dT
Regarding B8, the binding result in the data set with CbAgo [8] was “binds”.

B9: Guide 3nt / tandem 15 nt (ssDNA)
DNA 1: CGAGTATTTTTTTTTTTTTTTT
DNA 2: TTTTTTTTTTTTTACTACCTCTTTTTTTACTACCTCTTTTTTTTTTTTTTTTTTTTTTTTTTTTTT
modifications: guide 5' phosphate; amino-C6-dT
As to B9, the binding result with CbAgo [9] was “binds”.

B10: Guide 3nt / tandem 64 nt (ssDNA)
DNA 1: CGAGTATTTTTTTTTTTTTTTT
DNA 2: TTTTTTTTTTTTTTACTACCTCTTTTTTTTTTTTTTTTTTTTTTTTTTTTTTTTTTTTTTTTTTTTTTTTTTTTTTTTACTACCTCTTTTTTTTTTTTTTTTTTTTTTTTTTTTTTTT
modifications: guide 5' phosphate; amino-C6-dT; target 3' phosphate
In the case of B10, in the data set with CbAgo [10], the binding result is listed as “binds”.

B11: Guide 3nt (2-4) / single target (ssDNA)
DNA 1: CGAGTATTTTTTTTTTTTTTTT
DNA 2: TTTTTTTTTTTTTTTTTTTTTTTTTTTTTTTTTTTACTACCTCTTTTTTTTTTTTTTTTTTTTTTTTTTTTTT
modifications: guide 5' phosphate; amino-C6-dT at guide nt 9 and target nt 28
For the molecule B11, the binding result with CbAgo [11] is “binds”.

B12: Guide 7nt (2-8) / single target (ssDNA)
DNA 1: CGAGGTAGATTTTTTTTTTTTT
DNA 2: B11 DNA 2
modifications: guide 5' phosphate; amino-C6-dT
For B12, the binding result in the data set with CbAgo [12] (named 7 nt match (nt 2-8)) is “binds”.

B13: Guide 3nt / tandem 22 nt (ssDNA)
DNA 1: CGAGTATTTTTTTTTTTTTTTT
DNA 2: B11 DNA 2 with T14A, T15C, T17A, T18C, T19C, T21C
modifications: guide 5' phosphate; amino-C6-dT
For B13, the binding result in the data set with CbAgo [13] is given as “binds”.

B14: Guide 6nt / tandem 22 nt (ssDNA)
DNA 1: CGAGGTATTTTTTTTTTTTTTT
DNA 2: B11 DNA 2 with T14A, T15C, T17A, T18C, T19C, T21C
modifications: guide 5' phosphate; amino-C6-dT
For B14, the binding result with CbAgo [14] is reported as “binds”.

B15: Guide 8nt (2-9) / single target (ssDNA)
DNA 1: CGAGGTAGTTTTTTTTTTTTTT
DNA 2: B11 DNA 2
modifications: guide 5' phosphate; amino-C6-dT
With B15, the binding result in the data set with CbAgo [12] (named 8 nt match (nt 2-9)) is listed as “binds”.
